Measurements: patent US20240343821A1, “OFATUMUMAB FOR TREATING PEDIATRIC MS” (NOVARTIS AG, priority 2021, published 2024)

Columns and labels:
Assay type in all cases: in vivo, human
[1] = Ofatumumab half-life at steady state after subcutaneous administration; conditions: following subcutaneous administration of repeated 20 mg doses
Protocol: The half-life of ofatumumab at steady state can be approximately 16 days, in particular following subcutaneous administration of repeated 20 mg doses.

B cells = experiment: B cell depletion under the claimed ofatumumab dosage regimen; conditions: loading dose weeks 0, 1, 2; maintenance from week 8 every six weeks
Excerpt: This has been completely surprising because there are significant differences between adult patients and pediatric patients. These differences relate, inter alia, to physiology, metabolism, and body weight. In this context, it is also noted that there is a higher baseline B cell count in children compared to adults and, therefore, it would not have been expected that the claimed dosage regimen is able to consistently deplete B cells in patients as defined in the claims.

[2] = Immunoglobulin (IgG) levels under long-term ofatumumab therapy; conditions: in the long run, long-term treatment
Excerpt: Generally, side effects and adverse events associated with B cell-depleting therapies such as ocrelizumab therapy are reported to be associated with a reduction of immunoglobulins (e.g. IgG).

[3] = Multiple Sclerosis Impact Scale (MSIS-29) under ofatumumab; conditions: administration of ofatumumab
Protocol: The MSIS-29 version 2 is a 29-item, self-administered questionnaire that includes 2 domains: physical and psychological. Responses were captured on a 4-point ordinal scale ranging from 1 (not at all) to 4 (extremely), with higher scores reflecting greater impact on day-to-day life. The MSIS-29 takes about 5 minutes to complete and the questions are designed to determine the patient's views about the impact of MS on their day-to-day life during the past 2 weeks. Reference is made to Hobart J and Cano S (2009), “Improving the evaluation of therapeutic interventions in multiple sclerosis: the role of new psychometric methods”, Health Technol Assess; 13(12):iii, ix-x, […] to Hobart J, Lamping D, Fitzpatrick R, et al (2001), “The Multiple Sclerosis Impact Scale (MSIS-29): a new patient-based outcome measure”, Brain; 124(Pt 5):962-73.

Ofatumumab
half-life at steady state [1]: approximately 16 days | depletion of B cells (B cell count threshold) (B cells): < 8 cells per microliter | reduction of immunoglobulins (e.g. IgG) [2]: does not cause reduction of immunoglobulins | MS impact scale MSIS-29 [3]: advantageous reduction
